# Experimental data taken from the DeepSol protein solubility set.
# Test: soluble on expression in E. coli; label from the status in PepcDB or PDB records
row,Sequence,soluble on expression in E. coli
1,MPLIFAPFAADLARRAAALMPIDVLEIAAGTGAVTREMIPRLLPAAHYVVTDLNQPMLDFAAAQQAPDNRIKWRQADAQLLPFENAVFDLVFCQFGAMFFNDRLSAYREAKRVLKPGGHYLFNVWDRIEENHFADDVTNALAGLFPDDPPRFMARTPHGYHDTVLIRRELENAGFSRVTVETVAAQSRAPSPRIPAVAYCQGTVLRTEIEARAPGKLNAATDCAAAAIEARHGKGEVAAKIKAHVILAAV,not soluble
2,MEMVKSRSKVAIIGAGFVGASAAFTMALRQTANELVLIDVFKEKAIGEAMDINHGLPFMGQMSLYAGDYSDVKDCDVIVVTAGANRKPGETRLDLAKKNVMIAKEVTQNIMKYYNHGVILVVSNPVDIITYMIQKWSGLPVGKVIGSGTVLDSIRFRYLLSEKLGVDVKNVHGYIIGEHGDSQLPLWSCTHIAGKNINEYIDDPKCNFTEEDKKKIAEDVKTAGATIIKNKGATYYGIAVSINTIVETLLKNQNTIRTVGTVINGMYGIEDVAISLPSIVNSEGVQEVLQFNLTPEEEEALRFSAEQVKKVLNEVKNL,soluble
3,MNTESSPFVFNVGTLVRGSAVPASVQQTGPSPVRIGPAMIAIPENGDVTVNATITPLGDALMVDADVSAELSGECVRCLQHMAPRAQFHVNEVFALTEDFITGDDGDGEDDDVTVITGDTVDILQAVIDEAGMSLPFNPQCEGGCVQSDSDVPEPDGIAGETELVDPRWAGLEKFL,not soluble
4,GPGSMTPTRAQLAAFVDHTLLKPEATAADVAALVTEAAELGVYAVCVSPPMVPAAVQAGAGVRVASVAGFPSGKHVSAVKAHEAALAVASGAAEIDMVIDVGAALAGDLDGVRADIAAVRGAVGGAVLKVIVESSALLALADEHTLVRVCRAAEDAGADFVKTSTGFHPSGGASVRAVALMAEAVGGRLGVKASGGIRTAADALAMLDAGATRLGLSGTRAVLDGLG,soluble
5,MSNDGDLNIDNLITRLLEVRGCRPGKPVTMSEAEIRALCHKSREIFLSQPILLELEAPLKICGDIHGQYNDLLRLFEYGGFPPEANYLFLGDYVDRGKQSLETICLLLAYKVKYPENFFLLRGNHECASINRIYGFYDECKRRFSIKLWKTFTDCFNCLPIAALIDEKIFCCHGGLSPDLQNMEQIRRVMRPTDVPDTGLLCDLLWSDPDKDVTGWGENDRGVSFTFGPDVVAKFLNRHDLDLICRAHQVVEDGYEFFAKRQLVTLFSAPNYCGEFDNAGGMMSVDETLMCSFQILKPSEKKAKYQYQGMNSGRPAVGGGRPGTTAGKK,not soluble
6,MSLSIIVQKYGGTSVGSVQRIEHVANRIIATAASGKKVVVVVSAMGKTTDELVGLASEITDEPRKREMDMLLATGEQVTIALLAMALHKRGQEATSLTGWQAGMITESHHGNARILEVERARMDELLDKVHVVIVAGFQGIDQQGEIMTLGRGGSDTSAVAIAAALKAERCEIYTDVTGVFTTDPRVVKQARKLQTISYDEMLEMANLGASVLHPRAVEFAKNYEIPLLVASSMVDEPGTMIEEEGTMEQNLLVRGIAFENDVTKVTVHGLPNEIHTLPTLFAHLSAAGINVDIIIQNQTDSGMAISFSITQSSLKETLARLEELKGELSFQGIDYEEELAKVSIVGSGMVSNPGVAAKMFEILAANDIAIKMVSTSEIKVSAVIDEELMVLAVEMLHEQFKLHEEEPAVAVKVEGHHHHHH,soluble
7,MKQLWFAMSLVAASLFFSANASADPASGALLQQMNIASQSLNYELSFVSITKQGVESLRYRHARLDGRPLAQLLQLDGPRREVVQRGNEISYFEPGLEPFTLNGDYIVDSLPSLIYTDFKRLAPYYDFISVGRTRIADRLCEVIRVVARDGTRYSYIVWMDMDTKLPMRVDLLDRDGETLEQFRVIAFTVSQDIGSNMQALAKANLPPLLSVPGGEKTKFNWSPSWVPQGFSEVSSSRRPLPTMDNLPIESRLYSDGLFSFSVNVNRATQNSSDQMLRTGRRTVYSSVRDNAEITIVGELPPQTAKRIADSIKFRAVQ,not soluble
8,MKCVEVHVIDSSAIFQRKAVYRNMVTVPEVVAEILDEASALYFSVKNFRVEEASPESVEEVKEAARKTGDIHKLSDTDIKVLAKALDEIKKGNEVVLVTDDYAIQNVAMSLGIRFDGILHRQISKEFKWVKVCRGCGRRIESEICPVCGSEAIIRRVKNDKNRNSG,not soluble
9,MIRQRRRALTPEQQQEMGQQAATRMMTYPPVVMAHTVAVFLSFDGELDTQPLIEQLWRAGKRVYLPVLHPFSAGNLLFLNYHPQSELVMNRLKIHEPKLDVRDVLPLSRLDVLITPLVAFDEYGQRLGMGGGFYDRTLQNWQHYKTQPVGYAHDCQLVEKLPVEEWDIPLPAVVTPSKVWEWMGHHHHHHSH,not soluble
10,MKELTNEELRGIQLEQLKYIDRICRENGIEYTLAGGSLIGAIRHGGYIPWDDDIDIELTRPHYDHLISVLMDQLPNEKYALLHYKVRETYLPFAKLYDTRTSFTSKIDNLNRGTGVFLDIFPMDILPDNEEERQVFKKEFLKKAIQLTASNPHGLDFASSSKKIYFWGKLVLWMPQHIRFYGKYRILAEKLDEFMQKYRNSDNQLISYLYTGYKKAIFPKEIWEEYEDVKFEGLTARKLKNHEEYLTRQYGDYMKLPPENERVNHDYYKWYWKEKNEILEHHHHHH,soluble
11,MSLRWEGTEEEAYKAEGTHFSGARRQTLVGRPAGQEAPAFETRYFEVEPGGYTTLERHEHTHVVMVVRGHAEVVLDDRVEPLTPLDCVYIAPHAWHQIHATGANEPLGFLCIVDSDRDREGHHHHHH,not soluble
12,MRTRSQVWAQKAYEKVREAAKGEGRGEYRDMALKLPVLVRQAGLSQALAFVDSRGKEAHKALGNDLAQVLGYRDLRELAEAAREAELLQYLRLTREVLAAAEWFKRFAQALIEE,soluble
13,MDNEEYYKILGVAKSASQDEIKHAYRKMSKKYHPDLNHQPGAEDKYKQVQEAYETLGDPQKRAAYDQYGKAGANANNGQGGFGGFQQSGFNFNGQDFGDFSDIFSQMFGGSFNPNAPRKGRDLQYRINLTFEEAVFGKETEIKYVRQESGGNSKEHTVKVTIPAGVETGQQMRLAGQGEAGTHGGPYGDLYVEFIVGKSKDGFERQGANIYLEEPINFVQAALGDKIKVKTVHGDVELTIPAGTQTDTEFRLRGKGAPYVNSSRIGDEYVKVIVQVPKRLNEKEKKALKTYADLRGENVNPQKRRGLFG,not soluble
14,SLSRRGIDFLNDWIAEHHPDTLTEDPTAIADLADQLMAAAEKQGLSRRDISEEVGSVFQVILEAMQNRSGGRLYSSRWG,soluble
15,MGDCDIEGKDGKQYESVLMVSIDQLLDSMKEIGSNCLNNEFNFFKRHICDANKEGMFLFRAARKLRQFLKMNSTGDFDLHLLKVSEGTTILLNCTGQVKGRKPAALGAAQPTKSLEENKSLKEQKKLNDLCFLKRLLQEIKTCWNKILMGTKEH,soluble
16,MKVFIIGAAGGIGNRLSSLLHARGDAVSGMHRNLEQASKITDTGATAVLGDLIHNSTEELAELFRGHDAIVFSAGAHGTGQENTTLIDGAGLRKAADAASAANVSRFILVSAFPESSRGENTTENFEHYMKVKKSADVYLSHTDLDWVIVRPGVLQDEAGDGLVTAGLAINYGNVARDNVAAFIDEALHQPQLSKIIVELTDGSTPVAEAVERLIKLEHHHHHH,soluble
17,MGSDKIHHHHHHMTVRTRVTDLLEIEHPILMGGMAWAGTPTLAAAVSEAGGLGIIGSGAMKPDDLRKAISELRQKTDKPFGVNIILVSPWADDLVKVCIEEKVPVVTFGAGNPTKYIRELKENGTKVIPVVASDSLARMVERAGADAVIAEGMESGGHIGEVTTFVLVNKVSRSVNIPVIAAGGIADGRGMAAAFALGAEAVQMGTRFVASVESDVHPVYKEKIVKASIRDTVVTGAKLGHPARVLRTPFARKIQEMEFENPMQAEEMLVGSLRRAVVEGDLERGSFMVGQSAGLIDEIKPVKQIIEDILKEFKETVEKLRGYIEE,soluble
18,MQENQQITKKEQYNLNKLQKRLRRNVGEAIADFNMIEEGDRIMVCLSGGKDSYTMLEILRNLQQSAPINFSLVAVNLDQKQPGFPEHVLPEYLEKLGVEYKIVEENTYGIVKEKIPEGKTTCSLCSRLRRGILYRTATELGATKIALGHHRDDILQTLFLNMFYGGKMKGMPPKLMSDDGKHIVIRPLAYCREKDIQRFADAKAFPIIPCNLCGSQPNLQRQVIADMLRDWDKRYPGRIETMFSAMQNVVPSHLCDTNLFDFKGITHGSEVVNGGDLAFDREEIPLQPACWQPEEDENQLDELRLNVVEVKLEHHHHHH,not soluble
19,MSLASATDSRYGQKESSDQNFDYMFKILIIGNSSVGKTSFLFRYADDSFTPAFVSTVGIDFKVKTIYRNDKRIKLQIWDTAGQERYRTITTAYYRGAMGFILMYDITNEESFNAVQDWSTQIKTYSWDNAQVLLVGNKCDMEDERVVSSERGRQLADHLGFEFFEASAKDNINVKQTFERLVDVICEKMSESLDTADPAVTGAKQGPQLSDQQVPPHQDCACEGHHHHHH,soluble
20,MGSDKIHHHHHHMNNLDIKTLGQVFTPKKIVDFMLTLKHNHGSVLEPSAGDGSFLKRLKKAVRIEIDPKICPKNALCMDFFDYPLENQFDTIIGNPPYVKHKDIAPSTKEKLHYSLFDERSNLYLFFIEKAIKHLKPKGELIFITPRDFLKSTSSVKLNEWIYKEGTITHFFELGDQKVFPNAMPNCVIFRFCKGNFSRITNDGLQFLCKKGILYFLNQSYTQKLSEVFKVKVGAVSGCDKIFKNEKYGNLEFVTSITKRTNALEKMVFVNEPNDYLLQHKDSLMQRKIKKFNENNWFEWGRMHHISPKKRIYVNAKTHQKNPFFIHQCPNYDGSILALFPYNQNLDLQNLCDKLNAINWQELGFVCGGRFLFSQRSLENALLPKDFLNLG,not soluble
21,MGSSHHHHHHSSGLVPRGSHMLEDPMEQPINVLNDFHPLNEAGKILIKHPSLAERKDEDGIHWIKSQWDGKWYPEKFSDYLRLHKIVKIPNNSDKPELFQTYKDKNNKRSRYMGLPNLKRANIKTQWTREMVEEWKKCRDDIVYFAETYCAITHIDYGVIKVQLRDYQRDMLKIMSSKRMTVCNLSRQLGKTTVVAIFLAHFVCFNKDKAVGILAHKGSMSAEVLDRTKQAIELLPDFLQPGIVEWNKGSIELDNGSSIGAYASSPDAVRGNSFAMIYIEDCAFIPNFHDSWLAIQPVISSGRRSKIIITTTPNGLNHFYDIWTAAVEGKSGFEPYTAIWNSVKERLYNDEDIFDDGWQWSIQTINGSSLAQFRQEHTAAFEGTSGTLISGMKLAVMDFIEVTPDDHGFHQFKKPEPDRKYIATLDCSEGRGQDYHALHIIDVTDDVWEQVGVLHSNTISHLILPDIVMRYLVEYNECPVYIELNSTGVSVAKSLYMDLEYEGVICDSYTDLGMKQTKRTKAVGCSTLKDLIEKDKLIIHHRATIQEFRTFSEKGVSWAAEEGYHDDLVMSLVIFGWLSTQSKFIDYADKDD,soluble
22,LLRHISDAFAEDPLRVLRVARFAARFHHLGFSIAEQTLELMQKMTACGELNHLTAERIWRETEKALHTESPHIYFQVLRKVNALAILFPEIDQLFGQIQSVKYHLETDRGQHTLLALQQAKLLVKQAHNPTALLWAVLCHDLGKDLISAEMLPHHYQPNVTGIQLTHQLADRLKVPTAVKELALLVNKYHTNCHKIAELDSERVLELFNQLDVWRKPQRLDDFLLACEADARARLGAEYCSYPQA,not soluble
23,GPLQVSNARLLFPISMPEDEGVVRLVVNNTDESDLQVAVVSLPSFVSLDDRAFRLQAREPRELNLSLAVPRNMPPGMKDEPLVLEVTSPETGKKAVDSVMVSLPLVDNFPALTAAQTGVMELSTYLDMGQLDGETTKAAIEIRNVGAGPLRLHSVTTRNPALTAVPDRTEIKPGGSTLLRIAVDPQVMKAEGWQSIAADISIICNDPQAPLRRIKVKAEL,soluble
